# Assay results as given in IntAct's records for PubMed 35512704.
# B1: Speckle-type POZ protein (Homo sapiens), O43791 (parent)
# chain: MSRVPSPPPPAEMSSGPVAESWCYTQIKVVKFSYMWTINNFSFCREEMGEVIKSSTFSSGANDKLKWCLRVNPKGLDEESKDYLSLYLLLVSCPKSEVRAKFKFSILNAKGEETKAMESQRAYRFVQGKDWGFKKFIRRDFLLDEANGLLPDDKLTLFCEVSVVQDSVNISGQNTMNMVKVPECRLADELGGLWENSRFTDCCLCVAGQEFQAHKAILAARSPVFSAMFEHEMEESKKNRVEINDVEPEVFKEMMCFIYTGKAPNLDKMADDLLAAADKYALERLKVMCEDALCSNLSVENAAEILILADLHSADQLKTQAVDFINYHASDVLETSGWKSMVVSHPHLVAEAYRSLASAQCPFLGPPRKRLKQS
# partner: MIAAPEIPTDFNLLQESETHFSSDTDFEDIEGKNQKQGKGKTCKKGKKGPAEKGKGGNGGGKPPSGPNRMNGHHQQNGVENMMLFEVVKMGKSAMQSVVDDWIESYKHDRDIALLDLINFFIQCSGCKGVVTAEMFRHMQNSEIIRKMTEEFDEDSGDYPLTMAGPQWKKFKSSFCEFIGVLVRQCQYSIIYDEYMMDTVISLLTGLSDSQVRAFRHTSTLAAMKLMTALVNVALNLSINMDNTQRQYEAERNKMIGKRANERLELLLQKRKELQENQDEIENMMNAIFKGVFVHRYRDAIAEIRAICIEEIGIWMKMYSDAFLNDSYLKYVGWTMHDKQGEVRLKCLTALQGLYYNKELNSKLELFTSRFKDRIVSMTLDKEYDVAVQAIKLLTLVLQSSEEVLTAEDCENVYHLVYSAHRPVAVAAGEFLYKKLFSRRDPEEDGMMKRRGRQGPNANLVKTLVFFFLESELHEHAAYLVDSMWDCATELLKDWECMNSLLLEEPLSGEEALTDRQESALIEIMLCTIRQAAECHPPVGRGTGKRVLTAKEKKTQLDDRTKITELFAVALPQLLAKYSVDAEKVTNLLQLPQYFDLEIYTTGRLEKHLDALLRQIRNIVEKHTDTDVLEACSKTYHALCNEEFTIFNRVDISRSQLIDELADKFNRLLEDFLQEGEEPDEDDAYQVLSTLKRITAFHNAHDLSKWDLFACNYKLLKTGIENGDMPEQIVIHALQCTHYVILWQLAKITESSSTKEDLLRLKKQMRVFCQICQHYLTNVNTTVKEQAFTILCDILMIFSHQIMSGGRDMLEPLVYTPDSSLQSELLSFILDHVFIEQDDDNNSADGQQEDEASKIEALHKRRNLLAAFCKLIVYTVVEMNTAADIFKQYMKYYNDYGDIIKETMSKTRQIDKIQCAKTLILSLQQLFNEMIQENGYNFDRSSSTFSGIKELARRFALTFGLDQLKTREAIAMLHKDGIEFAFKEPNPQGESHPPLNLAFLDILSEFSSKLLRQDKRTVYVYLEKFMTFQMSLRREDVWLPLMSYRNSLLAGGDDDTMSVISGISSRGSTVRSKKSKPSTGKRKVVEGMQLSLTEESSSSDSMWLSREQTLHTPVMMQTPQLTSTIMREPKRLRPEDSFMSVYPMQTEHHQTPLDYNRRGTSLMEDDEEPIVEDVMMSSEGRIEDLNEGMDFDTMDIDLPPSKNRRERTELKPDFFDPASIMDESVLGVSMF
# B2: Speckle-type POZ protein (Homo sapiens), O43791 (parent)
# chain: B1 chain
# partner: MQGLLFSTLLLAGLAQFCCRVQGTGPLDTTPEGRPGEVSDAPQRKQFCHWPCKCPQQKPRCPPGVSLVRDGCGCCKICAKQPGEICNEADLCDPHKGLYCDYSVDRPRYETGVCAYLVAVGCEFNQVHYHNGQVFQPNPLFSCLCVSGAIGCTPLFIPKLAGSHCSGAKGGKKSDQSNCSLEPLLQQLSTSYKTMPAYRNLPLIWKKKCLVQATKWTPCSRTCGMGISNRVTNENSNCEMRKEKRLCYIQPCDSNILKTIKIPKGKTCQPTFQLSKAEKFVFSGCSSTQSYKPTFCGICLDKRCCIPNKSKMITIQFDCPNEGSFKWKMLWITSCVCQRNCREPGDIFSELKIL
# B3: Speckle-type POZ protein (Homo sapiens), O43791 (parent)
# chain: B1 chain
# partner: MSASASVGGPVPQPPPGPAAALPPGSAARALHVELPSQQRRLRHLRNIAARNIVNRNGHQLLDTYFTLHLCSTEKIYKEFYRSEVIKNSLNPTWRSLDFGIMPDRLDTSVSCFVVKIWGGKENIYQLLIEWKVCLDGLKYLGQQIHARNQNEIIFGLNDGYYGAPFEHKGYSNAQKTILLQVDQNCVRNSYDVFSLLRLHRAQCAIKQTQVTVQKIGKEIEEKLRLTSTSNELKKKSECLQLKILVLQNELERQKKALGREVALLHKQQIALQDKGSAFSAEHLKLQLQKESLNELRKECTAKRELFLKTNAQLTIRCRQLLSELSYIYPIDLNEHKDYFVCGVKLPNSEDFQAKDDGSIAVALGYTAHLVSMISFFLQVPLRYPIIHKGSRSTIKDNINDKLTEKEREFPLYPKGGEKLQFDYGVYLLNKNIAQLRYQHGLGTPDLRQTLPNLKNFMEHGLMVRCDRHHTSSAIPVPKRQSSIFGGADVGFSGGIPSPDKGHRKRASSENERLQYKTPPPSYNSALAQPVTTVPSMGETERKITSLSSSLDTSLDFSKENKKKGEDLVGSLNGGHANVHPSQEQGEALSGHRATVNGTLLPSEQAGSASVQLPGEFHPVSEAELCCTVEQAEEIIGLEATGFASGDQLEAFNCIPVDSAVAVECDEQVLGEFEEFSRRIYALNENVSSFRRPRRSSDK
# B4: Speckle-type POZ protein (Homo sapiens), O43791 (parent)
# chain: B1 chain
# partner: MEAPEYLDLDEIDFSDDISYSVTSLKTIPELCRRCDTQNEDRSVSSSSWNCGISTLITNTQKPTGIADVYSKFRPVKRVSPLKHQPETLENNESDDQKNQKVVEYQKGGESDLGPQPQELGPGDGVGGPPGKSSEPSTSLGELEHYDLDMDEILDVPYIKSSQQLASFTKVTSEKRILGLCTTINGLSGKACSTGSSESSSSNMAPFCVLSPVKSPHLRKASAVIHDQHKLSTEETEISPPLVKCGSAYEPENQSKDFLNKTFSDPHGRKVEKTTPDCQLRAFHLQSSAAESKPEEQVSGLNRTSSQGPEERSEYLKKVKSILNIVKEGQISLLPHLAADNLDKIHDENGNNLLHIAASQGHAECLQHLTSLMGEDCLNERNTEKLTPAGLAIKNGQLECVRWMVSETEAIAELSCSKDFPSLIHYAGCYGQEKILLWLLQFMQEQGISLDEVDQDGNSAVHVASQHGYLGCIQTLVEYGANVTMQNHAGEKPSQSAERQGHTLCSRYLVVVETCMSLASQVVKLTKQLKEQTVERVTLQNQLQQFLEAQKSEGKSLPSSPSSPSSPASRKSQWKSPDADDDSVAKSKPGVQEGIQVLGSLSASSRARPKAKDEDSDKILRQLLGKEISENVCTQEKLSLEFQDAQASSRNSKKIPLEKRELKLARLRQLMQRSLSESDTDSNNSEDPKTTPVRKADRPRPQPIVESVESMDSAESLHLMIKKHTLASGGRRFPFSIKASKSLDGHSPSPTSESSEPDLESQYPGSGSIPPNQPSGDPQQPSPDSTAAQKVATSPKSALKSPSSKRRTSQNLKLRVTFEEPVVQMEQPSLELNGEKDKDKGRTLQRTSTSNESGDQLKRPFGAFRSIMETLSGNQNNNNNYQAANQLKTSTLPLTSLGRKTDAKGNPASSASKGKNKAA
# B5: Speckle-type POZ protein (Homo sapiens), O43791 (parent)
# chain: B1 chain
# partner: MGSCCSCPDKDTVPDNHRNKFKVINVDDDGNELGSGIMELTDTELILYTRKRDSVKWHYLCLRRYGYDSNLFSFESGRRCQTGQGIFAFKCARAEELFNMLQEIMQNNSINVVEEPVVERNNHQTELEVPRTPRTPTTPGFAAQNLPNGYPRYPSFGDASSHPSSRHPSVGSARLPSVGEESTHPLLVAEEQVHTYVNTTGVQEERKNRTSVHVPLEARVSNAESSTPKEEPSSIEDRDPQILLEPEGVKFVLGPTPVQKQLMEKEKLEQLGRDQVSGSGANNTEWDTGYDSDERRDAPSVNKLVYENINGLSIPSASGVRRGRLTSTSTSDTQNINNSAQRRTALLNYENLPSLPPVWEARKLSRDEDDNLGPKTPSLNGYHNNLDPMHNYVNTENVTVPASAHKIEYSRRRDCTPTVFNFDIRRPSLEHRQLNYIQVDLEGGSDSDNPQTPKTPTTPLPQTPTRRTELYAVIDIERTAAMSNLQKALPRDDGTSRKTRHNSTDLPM
# Variants of: B1
# Settings: with stag2_human STAG2, Q8N3U4
row,Variant,effect of a mutation on the interaction
1,F102C,with no effect

# Variants of: B1
# Settings: with stag2_human STAG2, Q8N3U4
# Remark: another data set of the same source
row,Variant,effect of a mutation on the interaction
1,F133L,with no effect

# Variants of: B1
# Settings: with stag2_human STAG2, Q8N3U4
# Remark: another data set of the same source
row,Variant,effect of a mutation on the interaction
1,F133V,with no effect

# Variants of: B1
# Settings: with stag2_human STAG2, Q8N3U4
# Remark: another data set of the same source
row,Variant,effect of a mutation on the interaction
1,Y87C,with no effect

# Variants of: B2
# Settings: with ccn6_human CCN6, O95389
row,Variant,effect of a mutation on the interaction
1,Y87C,with no effect

# Variants of: B2
# Settings: with ccn6_human CCN6, O95389
# Remark: another data set of the same source
row,Variant,effect of a mutation on the interaction
1,F133L,with no effect

# Variants of: B2
# Settings: with ccn6_human CCN6, O95389
# Remark: another data set of the same source
row,Variant,effect of a mutation on the interaction
1,F133V,with no effect

# Variants of: B2
# Settings: with ccn6_human CCN6, O95389
# Remark: another data set of the same source
row,Variant,effect of a mutation on the interaction
1,F102C,with no effect

# Variants of: B3
# Settings: with uvrag_human UVRAG
row,Variant,effect of a mutation on the interaction
1,Y87C,with no effect

# Variants of: B3
# Settings: with uvrag_human UVRAG
# Remark: another data set of the same source
row,Variant,effect of a mutation on the interaction
1,F102C,with no effect

# Variants of: B3
# Settings: with uvrag_human UVRAG
# Remark: another data set of the same source
row,Variant,effect of a mutation on the interaction
1,F133L,with no effect

# Variants of: B3
# Settings: with uvrag_human UVRAG
# Remark: another data set of the same source
row,Variant,effect of a mutation on the interaction
1,F133V,with no effect

# Variants of: B4
# Settings: with sncap_human SNCAIP
row,Variant,effect of a mutation on the interaction
1,F133L,with no effect

# Variants of: B4
# Settings: with sncap_human SNCAIP
# Remark: another data set of the same source
row,Variant,effect of a mutation on the interaction
1,F133V,with no effect

# Variants of: B4
# Settings: with sncap_human SNCAIP
# Remark: another data set of the same source
row,Variant,effect of a mutation on the interaction
1,F102C,with no effect

# Variants of: B4
# Settings: with sncap_human SNCAIP
# Remark: another data set of the same source
row,Variant,effect of a mutation on the interaction
1,Y87C,with no effect

# Variants of: B5
# Settings: with frs2_human FRS2, Q8WU20
row,Variant,effect of a mutation on the interaction
1,F133L,with no effect

# Variants of: B5
# Settings: with frs2_human FRS2, Q8WU20
# Remark: another data set of the same source
row,Variant,effect of a mutation on the interaction
1,F133V,with no effect
